# T1: ARHGAP21, Q5T5U3
# T1 sequence (Q5T5U3 45-169, limits assumed, looked up): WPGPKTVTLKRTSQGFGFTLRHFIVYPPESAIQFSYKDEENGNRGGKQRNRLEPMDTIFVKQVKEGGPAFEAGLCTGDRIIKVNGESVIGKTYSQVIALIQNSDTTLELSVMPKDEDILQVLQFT
# T2: APBA2_1, Q99767
# T2 sequence (Q99767 563-664, limits assumed, looked up): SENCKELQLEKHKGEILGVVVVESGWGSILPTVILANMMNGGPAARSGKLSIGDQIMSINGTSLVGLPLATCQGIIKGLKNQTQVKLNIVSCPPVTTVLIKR
# T3: SHANK1, Q9Y566
# T3 sequence (Q9Y566 658-767, limits assumed, looked up): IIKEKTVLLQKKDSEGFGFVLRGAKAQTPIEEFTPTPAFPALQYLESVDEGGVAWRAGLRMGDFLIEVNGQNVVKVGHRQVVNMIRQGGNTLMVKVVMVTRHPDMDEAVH
# T4: MPDZ_10, O75970
# T4 sequence (O75970 1624-1722, limits assumed, looked up): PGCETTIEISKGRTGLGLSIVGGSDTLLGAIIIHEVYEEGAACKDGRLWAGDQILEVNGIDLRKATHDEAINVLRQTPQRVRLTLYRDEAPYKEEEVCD
# T5: PARD3B_1, Q8TEW8
# T5 sequence (Q8TEW8 196-299, limits assumed, looked up): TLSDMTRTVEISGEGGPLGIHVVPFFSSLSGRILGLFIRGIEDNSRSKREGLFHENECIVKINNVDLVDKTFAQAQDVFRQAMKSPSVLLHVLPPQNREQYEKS
# T6: APBA1_1, Q02410
# T6 sequence (Q02410 651-752, limits assumed, looked up): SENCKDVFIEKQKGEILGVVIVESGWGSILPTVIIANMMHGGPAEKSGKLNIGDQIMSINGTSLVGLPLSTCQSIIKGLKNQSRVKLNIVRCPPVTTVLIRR
# T7: RAPGEF6, Q8TEU7
# T7 sequence (Q8TEU7 525-625, limits assumed, looked up): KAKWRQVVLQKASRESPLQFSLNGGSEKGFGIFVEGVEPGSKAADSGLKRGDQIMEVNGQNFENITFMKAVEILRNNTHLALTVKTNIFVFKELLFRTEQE
# T8: MPDZ_12, O75970
# T8 sequence (O75970 1857-1958, limits assumed, looked up): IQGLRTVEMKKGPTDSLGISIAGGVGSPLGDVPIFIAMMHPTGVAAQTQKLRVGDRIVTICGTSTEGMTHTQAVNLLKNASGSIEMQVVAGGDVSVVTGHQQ
# T9: RADIL, Q96JH8
# T9 sequence (Q96JH8 971-1071, limits assumed, looked up): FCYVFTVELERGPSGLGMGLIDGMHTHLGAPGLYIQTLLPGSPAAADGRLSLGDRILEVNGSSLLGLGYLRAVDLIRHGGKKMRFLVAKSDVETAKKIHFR
# T10: MPDZ_5, O75970
# T10 sequence (O75970 695-796, limits assumed, looked up): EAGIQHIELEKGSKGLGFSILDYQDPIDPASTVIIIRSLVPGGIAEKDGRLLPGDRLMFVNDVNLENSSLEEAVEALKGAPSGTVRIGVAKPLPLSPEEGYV
# Experiments:
# Assay in all cases: holdup assay
# Set-up in all cases: key: below the threshold = too weak to quantify, mostly under pKd 3.1 to 4
# GOPC, Q9HD26 = target: GOPC, Q9HD26
# IL16_1, Q14005 = target: IL16_1, Q14005
# DLG5_1, Q8TDM6 = target: DLG5_1, Q8TDM6
# FRMPD2_2, Q68DX3 = target: FRMPD2_2, Q68DX3
# ARHGAP21, Q5T5U3 = target: T1, ARHGAP21, Q5T5U3
# NHERF4_2, Q86UT5 = target: NHERF4_2, Q86UT5
# APBA2_1, Q99767 = target: T2, APBA2_1, Q99767
# LNX1_1, Q8TBB1 = target: LNX1_1, Q8TBB1
# GRID2IP_1, A4D2P6 = target: GRID2IP_1, A4D2P6
# SHANK1, Q9Y566 = target: T3, SHANK1, Q9Y566
# MPDZ_10, O75970 = target: T4, MPDZ_10, O75970
# PARD3B_1, Q8TEW8 = target: T5, PARD3B_1, Q8TEW8
# DLG1_3, Q12959 = target: DLG1_3, Q12959
# GRASP, Q7Z6J2 = target: GRASP, Q7Z6J2
# AHNAK1, Q09666 = target: AHNAK1, Q09666
# MAGI3_2, Q5TCQ9 = target: MAGI3_2, Q5TCQ9
# APBA1_1, Q02410 = target: T6, APBA1_1, Q02410
# RAPGEF6, Q8TEU7 = target: T7, RAPGEF6, Q8TEU7
# MPDZ_12, O75970 = target: T8, MPDZ_12, O75970
# LAP2, Q96RT1 = target: LAP2, Q96RT1
# Inadl_9, Q8NI35 = target: Inadl_9, Q8NI35
# RADIL, Q96JH8 = target: T9, RADIL, Q96JH8
# MAGI2_4, Q86UL8 = target: MAGI2_4, Q86UL8
# NHERF4_1, Q86UT5-2 = target: NHERF4_1, Q86UT5-2
# SCRIB_1, Q14160 = target: SCRIB_1, Q14160
# MPDZ_5, O75970 = target: T10, MPDZ_5, O75970
# [1] = plain residues with an end cap or a label only (N-terminal biotin on a linker: ahx)
# [2] = plain residues with an end cap or a label only (N-terminal biotin on a linker: ado-ado)
# Chain of LAP2, Q96RT1 (Q96RT1 other isoform, or with tags, fused parts or gaps): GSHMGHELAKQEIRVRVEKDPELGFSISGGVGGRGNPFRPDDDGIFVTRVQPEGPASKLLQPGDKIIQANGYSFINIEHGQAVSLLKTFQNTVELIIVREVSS
# Chain of NHERF4_2, Q86UT5 (Q86UT5 220-308): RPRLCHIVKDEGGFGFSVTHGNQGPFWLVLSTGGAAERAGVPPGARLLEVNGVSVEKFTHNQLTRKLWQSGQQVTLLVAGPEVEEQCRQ
# Chain of AHNAK1, Q09666 (Q09666 4-100): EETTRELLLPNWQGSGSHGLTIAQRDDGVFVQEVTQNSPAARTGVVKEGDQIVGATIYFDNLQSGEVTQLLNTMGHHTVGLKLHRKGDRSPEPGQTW
# Chain of SCRIB_1, Q14160 (Q14160 718-814): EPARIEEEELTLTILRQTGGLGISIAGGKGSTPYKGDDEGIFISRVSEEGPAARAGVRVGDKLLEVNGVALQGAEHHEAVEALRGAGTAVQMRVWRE
# Chain of GRASP, Q7Z6J2 (Q7Z6J2 96-193): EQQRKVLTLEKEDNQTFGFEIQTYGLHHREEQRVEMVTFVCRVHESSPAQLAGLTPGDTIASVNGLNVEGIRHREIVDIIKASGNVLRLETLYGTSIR
# Chain of MAGI2_4, Q86UL8 (Q86UL8 772-865): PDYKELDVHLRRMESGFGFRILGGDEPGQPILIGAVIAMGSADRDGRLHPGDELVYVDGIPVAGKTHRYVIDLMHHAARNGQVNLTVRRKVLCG
# Chain of FRMPD2_2, Q68DX3 (Q68DX3 944-1038): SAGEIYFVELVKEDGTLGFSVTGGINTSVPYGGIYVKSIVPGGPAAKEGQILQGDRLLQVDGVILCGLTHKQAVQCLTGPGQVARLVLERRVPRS
# Chain of NHERF4_1, Q86UT5-2 (Q86UT5 other isoform, or with tags, fused parts or gaps): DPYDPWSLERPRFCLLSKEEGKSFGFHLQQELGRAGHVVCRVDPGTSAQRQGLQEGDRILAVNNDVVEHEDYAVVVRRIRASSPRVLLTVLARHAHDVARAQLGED
# Chain of LNX1_1, Q8TBB1 (Q8TBB1 261-371): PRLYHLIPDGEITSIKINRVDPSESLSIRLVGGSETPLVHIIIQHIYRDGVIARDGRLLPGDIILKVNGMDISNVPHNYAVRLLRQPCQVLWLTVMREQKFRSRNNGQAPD
# Chain of DLG1_3, Q12959 (Q12959 457-571): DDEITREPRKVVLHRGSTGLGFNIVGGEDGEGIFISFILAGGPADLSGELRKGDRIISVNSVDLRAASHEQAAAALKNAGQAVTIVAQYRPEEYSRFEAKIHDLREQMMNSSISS
# Chain of IL16_1, Q14005 (Q14005 210-306): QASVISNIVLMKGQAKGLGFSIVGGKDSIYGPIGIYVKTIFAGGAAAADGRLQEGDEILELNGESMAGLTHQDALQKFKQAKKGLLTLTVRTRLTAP
# Chain of DLG5_1, Q8TDM6 (Q8TDM6 617-713): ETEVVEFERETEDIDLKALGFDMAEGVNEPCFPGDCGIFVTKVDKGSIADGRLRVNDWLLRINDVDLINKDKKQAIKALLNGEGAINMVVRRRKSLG
# Chain of Inadl_9, Q8NI35 (Q8NI35 1530-1615): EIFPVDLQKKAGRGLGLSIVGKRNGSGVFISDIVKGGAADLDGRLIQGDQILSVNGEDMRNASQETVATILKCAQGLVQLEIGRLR
# Chain of MAGI3_2, Q5TCQ9 (Q5TCQ9 398-503): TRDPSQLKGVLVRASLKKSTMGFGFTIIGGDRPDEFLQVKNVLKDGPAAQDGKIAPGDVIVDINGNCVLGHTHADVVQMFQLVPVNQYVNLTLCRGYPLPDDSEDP
# Chain of GRID2IP_1, A4D2P6 (A4D2P6 1-87): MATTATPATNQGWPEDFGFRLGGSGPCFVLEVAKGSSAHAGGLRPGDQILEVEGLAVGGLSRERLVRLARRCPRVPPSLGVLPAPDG
binder,measurement,setting,value
"RRRKRKRTYL [HPV49-L2, P36762]",pKd,"GOPC, Q9HD26; [1]",4.3
same,pKd,"IL16_1, Q14005; [1]",below the threshold
same,pKd,"DLG5_1, Q8TDM6; [1]",below the threshold
same,pKd,"FRMPD2_2, Q68DX3; [1]",below the threshold
same,pKd,"ARHGAP21, Q5T5U3; [1]",3.6
same,pKd,"NHERF4_2, Q86UT5; [1]",below the threshold
same,pKd,"APBA2_1, Q99767; [1]",below the threshold
same,pKd,"LNX1_1, Q8TBB1; [1]",3.63
same,pKd,"GRID2IP_1, A4D2P6; [1]",below the threshold
same,pKd,"SHANK1, Q9Y566; [1]",4.32
same,pKd,"MPDZ_10, O75970; [1]",3.94
same,pKd,"PARD3B_1, Q8TEW8; [1]",3.72
same,pKd,"DLG1_3, Q12959; [1]",3.65
same,pKd,"GRASP, Q7Z6J2; [1]",4.37
same,pKd,"AHNAK1, Q09666; [1]",3.56
same,pKd,"MAGI3_2, Q5TCQ9; [1]",5.4
same,pKd,"APBA1_1, Q02410; [1]",3.71
same,pKd,"RAPGEF6, Q8TEU7; [1]",below the threshold
same,pKd,"MPDZ_12, O75970; [1]",below the threshold
same,pKd,"LAP2, Q96RT1; [1]",below the threshold
same,pKd,"Inadl_9, Q8NI35; [1]",below the threshold
same,pKd,"RADIL, Q96JH8; [1]",below the threshold
same,pKd,"MAGI2_4, Q86UL8; [1]",below the threshold
same,pKd,"NHERF4_1, Q86UT5-2; [1]",4.69
same,pKd,"SCRIB_1, Q14160; [1]",3.67
same,pKd,"MPDZ_5, O75970; [1]",below the threshold
"RAVEEEESRF [PSCDBP, O60759]",pKd,"GOPC, Q9HD26; [1]",below the threshold
same,pKd,"IL16_1, Q14005; [1]",below the threshold
same,pKd,"DLG5_1, Q8TDM6; [1]",below the threshold
same,pKd,"FRMPD2_2, Q68DX3; [1]",below the threshold
same,pKd,"ARHGAP21, Q5T5U3; [1]",below the threshold
same,pKd,"NHERF4_2, Q86UT5; [1]",below the threshold
same,pKd,"APBA2_1, Q99767; [1]",below the threshold
same,pKd,"LNX1_1, Q8TBB1; [1]",below the threshold
same,pKd,"GRID2IP_1, A4D2P6; [1]",below the threshold
same,pKd,"SHANK1, Q9Y566; [1]",4.77
same,pKd,"MPDZ_10, O75970; [1]",below the threshold
same,pKd,"PARD3B_1, Q8TEW8; [1]",4.06
same,pKd,"DLG1_3, Q12959; [1]",below the threshold
same,pKd,"GRASP, Q7Z6J2; [1]",below the threshold
same,pKd,"AHNAK1, Q09666; [1]",below the threshold
same,pKd,"MAGI3_2, Q5TCQ9; [1]",below the threshold
same,pKd,"APBA1_1, Q02410; [1]",below the threshold
same,pKd,"RAPGEF6, Q8TEU7; [1]",below the threshold
same,pKd,"MPDZ_12, O75970; [1]",below the threshold
same,pKd,"LAP2, Q96RT1; [1]",below the threshold
same,pKd,"Inadl_9, Q8NI35; [1]",below the threshold
same,pKd,"RADIL, Q96JH8; [1]",below the threshold
same,pKd,"MAGI2_4, Q86UL8; [1]",below the threshold
same,pKd,"NHERF4_1, Q86UT5-2; [1]",below the threshold
same,pKd,"SCRIB_1, Q14160; [1]",below the threshold
same,pKd,"MPDZ_5, O75970; [1]",below the threshold
"PLSPEQPTKL [TRIM50, Q86XT4]",pKd,"GOPC, Q9HD26; [2]",below the threshold
same,pKd,"IL16_1, Q14005; [2]",below the threshold
same,pKd,"DLG5_1, Q8TDM6; [2]",below the threshold
same,pKd,"FRMPD2_2, Q68DX3; [2]",below the threshold
same,pKd,"ARHGAP21, Q5T5U3; [2]",below the threshold
same,pKd,"NHERF4_2, Q86UT5; [2]",below the threshold
same,pKd,"APBA2_1, Q99767; [2]",below the threshold
same,pKd,"LNX1_1, Q8TBB1; [2]",below the threshold
same,pKd,"GRID2IP_1, A4D2P6; [2]",below the threshold
same,pKd,"SHANK1, Q9Y566; [2]",below the threshold
same,pKd,"MPDZ_10, O75970; [2]",below the threshold
same,pKd,"PARD3B_1, Q8TEW8; [2]",4.06
same,pKd,"DLG1_3, Q12959; [2]",below the threshold
same,pKd,"GRASP, Q7Z6J2; [2]",4
same,pKd,"AHNAK1, Q09666; [2]",below the threshold
same,pKd,"MAGI3_2, Q5TCQ9; [2]",below the threshold
same,pKd,"APBA1_1, Q02410; [2]",below the threshold
same,pKd,"RAPGEF6, Q8TEU7; [2]",below the threshold
same,pKd,"MPDZ_12, O75970; [2]",below the threshold
same,pKd,"LAP2, Q96RT1; [2]",below the threshold
same,pKd,"Inadl_9, Q8NI35; [2]",below the threshold
same,pKd,"RADIL, Q96JH8; [2]",below the threshold
same,pKd,"MAGI2_4, Q86UL8; [2]",below the threshold
same,pKd,"NHERF4_1, Q86UT5-2; [2]",3.98
same,pKd,"SCRIB_1, Q14160; [2]",below the threshold
same,pKd,"MPDZ_5, O75970; [2]",below the threshold
